From patent US20190106498A1, “TREATMENT FOR ACUTE MYELOID LEUKEMIA” (priority 2017, published 2019)

Key:
blasts = assay: Phase I/II trial: blasts in bone marrow and peripheral blood (cytomorphology, flow cytometry, MRD); type: in vivo, human
Experimental: FIGS. 6A-6C Bone marrow (BM) blast load was assessed by cytomorphology (FIG. 6A), and flow cytometry using leukemia-associated immunophenotype (LAIP) gating (FIG. 6B) and blast gating (SSClow CD45dim; FIG. 6C). The latter method was used to determine measurable/minimal residual disease (MRD) status of the patient.
FIGS. 7A-7C Peripheral blood (PB) blast load was assessed by cytomorphology (FIG. 7A), and flow cytometry using leukemia-associated immunophenotype (LAIP) gating (FIG. 7B) and blast gating (SSClow CD45 dim; FIG. 7C). The latter method was used to determine measurable/minimal residual disease (MRD) status of the patient.
Minimal residual disease (MRD) assessments were performed on bone marrow aspirates and/or whole blood collected at time points as specified in FIG. 5. Flow cytometry was utilized as the primary method of MRD analysis. Suitable flow cytometry markers for MRD assessment and determining AML subtype include CD16, CD13, CD34, CD117, CD11 b, CD10, HLA-DR, CD45, CD35, CD64, IREM-2, CD36, CD105, CD14, CD33, CD71, CD36, CD105, CD33, CD71, cTdT, CD56, CD7, CD19, cMPO, cLactoferrin, cLysozyme. An additional panel was used as a part of the trial, focusing on CD70, CD27 expression as well as markers indicative of stem cell potential or myeloid differentiation: CD27, CD70, CD34, CD117, CD11 b, HLA-DR, CD45, CD38, and CD123. When available, flow cytometry results were compared to other molecular approaches such as polymerase chain reaction (PCR) test.
For each patient, the number of blasts in bone marrow and peripheral blood were assessed at various time-points as outlined in FIG. 5.
To assess bone marrow blasts, bone marrow aspirates taken at the various time points were analysed. Methylcellulose colony assays using FACS sorted monocytes (mononuclear cells (CD45^dim) were selectively sorted by excluding doublets, dead cells and lymphocytes using Annexin V and antibodies for CD19 and CD4/CD8) were used to assess the number of LSCs in the bone marrow. In addition, bone marrow blast percentages were also assessed by cell morphology and flow cytometric analysis.

[1] = tested on: CD70-expressing tumor cells; conditions: cited from earlier work
healthy stem cells = type: cell-based, human
Experimental: FIGS. 3A-3F Anti-CD70/decitabine co-treatment reduces re-plating capacity of human CD34+CD38− AML stem/progenitor cells. […] Colonies and cells were enumerated after 14 days. (FIG. 3A) Colonies per 1×10^3 plated cells. (FIG. 3B) Cells per colony. (FIG. 3C) Serial re-plating experiments. (d-f) FACS-purified lin-CD90+CD34+CD38− stem/progenitor cells from BM of “healthy” donors were cultured and plated in methylcellulose as described in (a-c). (FIG. 3D) Colonies per 1×10^3 plated cells. (FIG. 3E) Cells per colony. (FIG. 3F) Serial re-plating experiments. Data are represented as mean±S.D. Statistics: One-way-ANOVA. Dunnett's post-test (vs. αCD70/D); *, P<0.05; **, P<0.01; ***, P<0.001.

[2] = in vivo
Experimental: Subjects received a loading dose of ARGX-110 on Day −14, followed by administration of ARGX-110 in combination with standard doses of AZA. Doses of ARGX-110 were administered intravenously every 2 weeks (loading dose at Day −14 and further doses on Days 3 and 17) in combination with standard doses of AZA to determine the dose limiting toxicity (see FIG. 4). The first patient of each cohort was monitored until day 7 before a second patient was included. […] The ARGX-110 dose level in the first cohort in Phase I was 1 mg/kg body weight.
All subjects in the study received a single loading dose of ARGX-110 on Day −14, at the same dose level as the bi-weekly dose. Subjects in Phase I of the study received one of the following treatments: • Cohort 1: 1 mg/kg body weight IV on Days 3 and 17 of a 28-day cycle • Cohort 2: 3 mg/kg body weight IV on Days 3 and 17 of a 28-day cycle • Cohort 3: 10 mg/kg body weight IV on Days 3 and 17 of a 28-day cycle • Cohort 4: 20 mg/kg body weight IV on Days 3 and 17 of a 28-day cycle

[3] = Serum pharmacokinetics of ARGX-110 (ELISA); type: in vivo, human
Experimental: FIG. 11 The serum concentration of ARGX-110 was analyzed using a validated enzyme-linked immunosorbent assay (ELISA) method. Individual patient PK plots are provided for 10 mg/kg cohort. The PK plot presents data for ARGX-110 cycle1 (D-14 pre-dose until Cycle1 D1 pre-dose).
The serum concentrations of ARGX-110 were analysed using a validated enzyme-linked immunosorbent assay (ELISA) method. The following pharmacokinetic parameters were assessed: • Cmax: maximum observed concentration; Ctrough: trough concentration; AUC∞: area under the serum concentration-time curve from time zero to infinity; AUCtau: area under the serum concentration-time curve during the dosing interval; Vd: apparent volume of distribution; CL: total systemic clearance of drug after IV administration; t1/2: half-life.
The serum concentration of ARGX-110 was analysed using a validated enzyme-linked immunosorbent assay (ELISA) method. FIG. 11 provides individual patient PK plots for the 10 mg/kg cohort. The PK plot presents data for ARGX-110 cycle 1 (D-14 pre-dose until Cycle1 D1 pre-dose).

[4] = ARGX-110 concentration in bone marrow aspirates versus plasma; type: in vivo, human
Experimental: Concentration of ARGX-110 in bone marrow aspirates was measured in limited samples and compared to the matching plasma samples.

[5] = patient 1001001, 1 mg/kg with AZA, C3D1
[6] = patient 1001001, 1 mg/kg with AZA, C4D1
[7] = patient 1001002, 1 mg/kg with AZA, C2D17
[8] = patient 1001002, single dose 1 mg/kg
[9] = patient 1001005, 3 mg/kg, Cycle 7 Day 2
[10] = patient 1001007, 10 mg/kg, Cycle 4 Day 1

B1: ARGX-110: IgG1 anti-CD70 antibody with defucosylated Fc region; VH SEQ ID NO: 4, VL SEQ ID NO: 8 (antibody, V domains shown)
VH: EVQLVESGGGLVQPGGSLRLSCAASGFTFSVYYMNWVRQAPGKGLEWVSDINNEGGTTYYADSVKGRFTISRDNSKNSLYLQMNSLRAEDTAVYYCARDAGYSNHVPIFDSWGQGTLVTVSS
VL: QAVVTQEPSLTVSPGGTVTLTCGLKSGSVTSDNFPTWYQQTPGQAPRLLIYNTNTRHSGVPDRFSGSILGNKAALTITGAQADDEAEYFCALFISNPSVEFGGGTQLTVLG
modifications: IgG1, defucosylated Fc; Custom antibody fragment
blasts; following monotherapy, C1D1 vs earlier
  PB blast percentage: reduced
blasts; in vivo
  bone marrow blasts according to MRD criteria: significantly reduced
blasts; majority of patients, by C1D1 following monotherapy
  bone marrow blast percentage: at least partially or completely reduced by C1D1
blasts; [5]
  BM blasts by flow cytometry: 2.8%
  MRD for peripheral blood: 0.3%
  minimal residual disease analysis (MRD), bone marrow: 0.2%
blasts; [6]
  peripheral blood blast percentage by cell morphology: 0%
  peripheral blood blast percentage by flow cytometry: 0.8%
blasts; patient 1001001, 1 mg/kg with AZA, C4D17
  peripheral blood MRD class: MRD-negative
blasts; patient 1001001, 1 mg/kg with AZA, after first complete cycle (C2D1)
  peripheral blood blasts: cleared
blasts; patient 1001001, single (loading) dose 1 mg/kg
  blast cell populations by cell morphology and flow cytometry: reduction in bone marrow and in peripheral blood
blasts; [7]
  percentage of blasts in peripheral blood by cell morphology: 0%
  percentage of blasts in peripheral blood by flow cytometry: 0.8%
blasts; patient 1001002, 1 mg/kg with AZA, end of cycle 1 (C2D1)
  overall blast percentage in peripheral blood: approaching zero
blasts; patient 1001002, after loading dose 1 mg/kg (C1D1 vs screening)
  overall blast percentage in peripheral blood: fell
blasts; [8]
  percentage of total blasts in bone marrow by cell morphology: an increase was observed
  percentage of total blasts in bone marrow by flow cytometry: appeared to be reduced
blasts; patient 1001003, C1D1
  blast percentage: stable
blasts; patient 1001003, with AZA, 1 cycle (C2D1)
  peripheral blasts: no peripheral blasts
blasts; under combination therapy with aza, from C1D1 onwards
  PB blast percentage: further reduced
[1]
  antibody dependent cellular phagocytosis (ADCP): increase antibody dependent cellular phagocytosis (ADCP) of CD70-expressing cells
  lysis via ADCC and CDC: lyse CD70-expressing tumor cells
[1]; defucosylated Fc (Potelligent)
  ADCC functionality: increased ADCC functionality compared to a fucosylated counterpart
Healthy stem cells
  effect on healthy stem cells (colonies, cells per colony, re-plating): no effect on healthy cells compared to vehicle alone
[2]
  Lung infection, Grade 3-5 adverse events: Total: 1
  Tooth Infection, Grade 3-5 adverse events: Total: 1
[2]; 1 mg/kg
  Lung infection, Grade 3-5 adverse events: (patients): 1 (1)
  Lung infection, Grade 3-5 adverse events: Events: 1 (1)
[2]; 3 mg/kg
  Tooth Infection, Grade 3-5 adverse events: (patients): 1 (1)
  Tooth Infection, Grade 3-5 adverse events: Events: 1 (1)
[3]; 10 mg/kg
  half-life: approximately 9.2 days
[3]; all cohorts
  Cmax and AUC over the dose range studied: dose proportionality
[4]; [9]
  CARGX-110 BM aspirate: 33.1 µg/mL
  CARGX-110 plasma: 37.3 µg/mL
[4]; [10]
  CARGX-110 BM aspirate: 117.7 µg/mL
  CARGX-110 plasma: 126.6 µg/mL
[4]; patients 1001005 and 1001007
  concentration in bone marrow aspirates versus plasma: comparable to the plasma levels
